Reference: the DeepSol protein solubility set

Experiment: soluble on expression in E. coli; label from the status in PepcDB or PDB records

Soluble on expression in E. coli, not soluble:
MAHHHHHHMLKRSGTICSLQSVVRGAAKIAAAIVDASVGNVNVVDNSHNGEGGTPARAAGRSHTSSPPEVLPRSVVTQLHESKDDLRKNAVYMSVPSTRITRAAGFASLFVQLGWDHLVDRNGEGILSSQSHKRVVNTLRRMRGVVLKLGQMLSIQDPATVPQYVLQLFEQVRDSAYAMSREQLDQTLAKEYENINWRKDFFLEFDDEPIGAASIGQVHRATIKGEGDTQIEHVAVKVQYPGVATSIDSDIANLKMLISLHLLPPGMFVDRILQDLRQEFLLECRYKIEAAKQVRYAALIKQEPELQEVFVVPKVYESLSTENVLVTQFVTGIPVDRLANISGVQDLKNYVAERMLLLTLTELFRWRFMQTDPNYANFLFDAEKNKISLIDFGAAREYSKEFVKDYMDVVAAAARQDRDRIIEKSIKLGFLTGNEMKPMLDAHAASVELLGRPFRHHDKPFDFSAENLPSKIQEHVPTIIKLRLRPPPTPVYSLHRRISGIILLATKLKATVNSGEMFWNIYNSCRTNYE
MITKRQLSILNAIVEDYVDFGQPIGSKTLIHRHHLDVSPATIRNEMKQLEEMHFIEKTHTSSGRVPSESGIRYYVNRLLEQTSHQSQNKIQRLNQLLIENHYDSSTALTNFAHELSMKSQYATLVVRPNHKQDVINDIHLIRANNHLIILVMVFSSGHVENIHFVSHAQLNNINLNKIANFLTEHFSFNRKVLTQNIESYFSQKEELLLANEVVEMINLQIGNQSNSIYMGGKVKLIDALNESNVSSIQPILQYIESNKITELLEDISTSQINVRIGKEIDDSLSDISIVTSQYHFDESLKGQIAVIGPTAMHYQNVIQLLNRIW
MGSDKIHHHHHHMKFVQKIYYFLFKLVGFLPRRKELVMFESFSGKQYSCNPRAIFEYMEEHNPEYELLWSVNPKYVDLFEAHGVPYVKRFSVNWLFKMGLAKFWISNSRLPLELPKPKKTIYVQTWHGTPLKKLGVDIDEVHMPGQTTEQYKADFVKEAQKWDYLISPNAYSSTIFRRAFGFTGEMIESGYPRNDILFSADKELKIANIKMALNIPEDKKVILYAPTWRDNDFYEIGKYKFDLKIDIAKMQEKFGDEVVLLVRMHYLVAEHFDFTQYGDFVRDASKHEDIRDLYLVSDLLITDYSSVFFDYANLKRPMLFYTYDLAEYRDTLRGFYFDFEQNAPGPLVEMNDALMAEIEIMLENPPQIAESFLEQFCTWEDGHAAEKTVKKVFAEK
MATQDDAHLAELKKKRTFRKFMYRGVDLDQLLDMSREQFTKLLPCRMRRRLDRGLKRKHLALIAKVQKAKKAAGVLEKPATVKTHLRDMIILPELVGGVIGIYNGKVFNQTEIKPEMIGFYLGEFAISYKPVKHGRPGIGATHSSRFIPLK
MSLTNNVIHLIPEIERILRIKYDDKQKELFYKINENNILVLTGFAGTGKSSVLNGLLNLFDKKNITYKLMSPTAKAAKRMEECTGKKASTIHRALGLAEGKFLVNEKNPFAEDVIIIDETSMVDIYLFLAVLKGIKNTTKLLCLGDYGQLESISAGNVLFDMIQGGIPCVKLEKIFRQKEDSSLLNVITNIRNGDNPLKNTHKTYLELGRDCKFWLGKKEQTLSRVLLCYKECLKHFSREDIMVLCPMKKGNSGVNKLNQELQKIANSQNTEELKLKDCAYKKEDLVMHIKNDYNANIFSEDCKDTIAKGIFNGDAGKIEKIDLENQKLYVSYDSGIVEYDNSNLNELMLSYALTIHKVQGSQSKVVIVALDMSHYKMLKRSLLYTAASRCVELLIFICDPKAFSIALNNNQVTHKNTFLGELLKISEGHHHHHH
MMAARLLGTSSRIFKLNKHLHTSKVAFMPVVQFKLSDIGEGIAEVQVKEWYVKEGDTISQFDKVCEVQSDKAAVTISCRYDGIVKKLYHEVDGMARVGQALIDVEIEGNVEEPEQPKKEAASSSPEAPKSSAPKAPESAHSEGKVLATPAVRRIAIENKIKLAEVRGTGKDGRVLKEDVLKFLGQVPADHTSGSTNIRTTHQAPQPSSKSYEPLKEDVAVPIRGYTRAMVKTMTEALKIPHFGYNDEINVDSLVKYRAELKEFAKERHIKLSYMPFFIKAASLALLEYPSLNSTTDEKMENVIHKASHNICLAMDTPGGLVVPNIKNCEQRSIFEIAQELNRLLEAGKKQQIKREDLIDGTFSLSNIGNIGGTYASPVVFPPQVAIGAIGKIEKLPRFDKHDNVIPVNIMKVSWCADHRVVDGATMARFSNRWKFYLEHPSAMLAQLK
MQPKVTVAQAAELMGVSDRTIRKKIEEGEITAEPAQSAKGKGRPGYLIPVSSLPVDAQRKYWTTSEVAAASEIGEAEPDKPETTGIPYTLAELEHAVGKEKFQEMMAEAEYRLQIVEQAMNPPQGVERTIWINRLAKKYGKSTATIYRDIEKFQEWGILGLMRKSRLLTQGPQRTSIEPEVERFIRAKYLDRRKPKPAHIFRETVRFCATNGYKAPSRASVFRYISDMERYEPDLCCLAREGEEAYWKKFAEKATRKEPEFVNQVWMGDHHKLDMFISYKGKPVRPWLTVWFDVCSRVVVGWCLSVQANGRTIALALRHALLPKKIKRDDGTEDVLEIGGIPGMIYIDNGEDYKAQVRAGKKHEDWELSRETRGICASLDIKVQFATPYHPWAKAHVERFFGTFTDQFTRYQPGWCGPNNEDRPEGFDEKELHEKGLLLDLEELSERIDTWLYEYHTTEHRSLGMTPMQKHFSTPKIREGFADERALDICLMDVERAAVTPNGIERFGTRGRKRWYWHPELPAYAGQKVIIRYDPNRIGELLVFHPKTGKYLFTATNKELLDFNATKDDIQELQKRRASRRKAVKEMVRNAQQASLENIVAEREAAGSRMTSGKAGSTKGKVRAMIGTEQVVRQREEQANLAKTKRPTKTTSAFDDYILREGTEG
MSVKVIVTDMDGTFLNDAKTYNQPRFMAQYQELKKRGIKFVVASGNQYYQLISFFPELKDEISFVAENGALVYEHGKQLFHGELTRHESRIVIGELLKDKQLNFVACGLQSAYVSENAPEAFVALMAKHYHRLKPVKDYQEIDDVLFKFSLNLPDEQIPLVIDKLHIALDGIMKPVTSGFGFIDLIIPGLHKANGISRLLKRWDLSPQNVVAIGDSGNDAEMLKMARYSFAMGNAAENIKQIARYATDDNNHEGALNVIQAVLDNTSPFNS
GMNSGKVAFIVTKNGKRICDVIDECSQRGSTILKAQGGYKQDDIQVVMCACNSKEMYQVRKSVKDTDPDSFIVVVESHEVHGEGFKMTNIGEAEN
MKSGERSAVADRAQQIMSAARELLDAEGPDALSMRRIAERVGIRAPSLYKHFADKAALVAGLQAQGLTLLAEVQEAAEAEIGADPPLLVLGYAYRRHALASPHLYRITHGWPLARTALPEGLEDRAALPLARAVHGDINIARSFWAFAHGMVVLELDGRFPPGADLDVAWRTGCEAFTQAIRNRPHGSTA
MNTGPYYFVKNLPLHELITPEFISTFIKKGSCYALTYNTHIDEDNTVALLPNGKLILSLDKDTYEETGLQGHPSQFSGRKIMKFIVSIDLMELSLNLDSKKYERISWSFKEKKPLKFDFLLAWHKTGSEESTMMSYFSKYQIQEHQPKVALSTLRDLQCPVLQSSELEGTPEVSCRALELFDWLGAVFSNVDLNEPNNFISTYCCPEPSTVVAKAYLCTITGFILPEKICLLLEHLCHYFDEPKLAPWVTLSVQGFADSPVSWEKNEHGFRKGGEHLYNFVIFNNQDYWLQMAVGANDHCPPLEHHHHHH
MSLNIFDHYRQRYEAAKDEEFTLQEFLTTCRQDRSAYANAAERLLMAIGEPVMVDTAQDPRLSRLFSNRVIARYPAFEEFYGMEDAIEQIVSYLKHAAQGLEEKKQILYLLGPVGGGKSSLAERLKSLMQLVPIYVLSANGERSPVNDHPFCLFNPQEDAQILEKEYGIPRRYLGTIMSPWAAKRLHEFGGDITKFRVVKVWPSILQQIAIAKTEPGDENNQDISALVGKVDIRKLEHYAQNDPDAYGYSGALCRANQGIMEFVEMFKAPIKVLHPLLTATQEGNYNGTEGISALPFNGIILAHSNKSEWVTFRNNKNNEAFLDRVYIVKVPYCLRISEEIKIYEKLLNHSELTHAPCAPGTLETLSRFSILSRLKEPENSSIYSKMRVYDGESLKDTDPKAKSYQEYRDYAGVDEGMNGLSTRFAFKILSRVFNFDHVEVAANPVHLFYVLEQQIEVYWQEGHHHHHH

Soluble on expression in E. coli, soluble:
MSLANLNIFGQEVGADVEGWTTRAFPEKVVLKGNTCRLEPLDRERHGSELFSAYSEAGQKLWTYLPAGPFTNLEEYLEFIKELNETKDTVPFAIINKETERAVGTLCLIRIDEANGSLEVGYVVFSPELQKTIIATEAQFLLMKYVFDDLQYRRYEWKCDSLNGPSRRAAMRLGFKYEGTFRQVVVYKGRTRDTQWFSIIDKEWLRIRKTFEEWLDKTNFENGKQKRGIAAIRESLSNEGHHHHHH
GMHTDVNALFAALWQDYIKMTPSAAKIHQLLGHGAPIINDHIALRTFNIAKVNLSVLAKHFTSIGYVDSGDYKFEQKKLIAKHFEHPDPKQPKVFISELLVEEFSPEVQKSIHGLIDQVDIAATTADNFIYSGRHWDVDKATYQALLAESEYAAWVAALGYRANHFTVSINDLPEFERIEDVNQALKQAGFVLNSSGGEVKGSPEVLLEQSSTMADKVVVNFTDGDVEIPSCFYEFARRYPMANGQLYTGFVAASADKIFESTNAMM
MSLGVSFNIMCPNSSIYSDEKSRVLVDKTKSGKVRPWREKKIANVDYFELLHILEFKKAERVKDCAEILEYKQNRETGERKLYRVWFCKSRLCPMCNWRRAMKHGIQSQKVVAEVIKQKPTVRWLFLTLTVKNVYDGEELNKSLSDMAQGFRRMMQYKKINKNLVGFMRATEVTINNKDNSYNQHMHVLVCVEPTYFKNTENYVNQKQWIQFWKKAMKLDYDPNVKVQMIRPKNKYKSDIQSAIDETAKYPVKDTDFMTDDEEKNLKRLSDLEEGLHRKRLISYGGLLKEIHKKLNLDDTEEGDLIHTDDDEKADEDGFSIIAMWNWERKNYFIKEEGHHHHHH
MAKHEQILVLDPPSDLKFKGPFTDVVTTNLKLQNPSDRKVCFKVKTTAPRRYCVRPNSGIIDPGSIVTVSVMLQPFDYDPNEKSKHKFMVQTIFAPPNISDMEAVWKEAKPDELMDSKLRCVFEMPNENDKLND
SFHGIPASGVMGGAPANKPELYEEVKLYKNAREREKYDNMAELFAVVKTLQALEKAYIKDCVTPNEYTGACSRLLVQYKAAFKQVQGSDVGSIDDFCRKYRLDCPLAMERIKEDRPITIKDDKGNLNRCIADIVSLFITVMDKLRLEIRAMDEIQPDLRELMETMNRMSNMPPDSEAKDKVSLWLTTLSSMSASDELDDSQVRQMLFDLESAYNAFNRFLHSS
MSLDRKLKGSVEEKTLEYLRKRPEIYMALSTGIVNLNGLAALISKENDGMNQLSIRSVLQKMIRDGLVSDYRKSTDDLLKRSKVTLQDKVSVITSRRKIDIDFLSVTFLTDSVVYIVDETRAKNIPKDALIERNVSLIHIFSPPEIVTTPGFAMNVVQRIYAANVNILQLISCSNETMIVVNRDDAISAYSALTSYEGHHHHHH
MSLAATGDAGWRIRLREAAVVAGPTVLLGEVADPVGEMPAAVWRDLAARPLWAAPADAGRPMIVNKVRLGEALRAALGATADSCLLPPSMALQRGGAVLREGDLRDIVVRTMTPQLASMGGEASFSDFRLPPFAFLEHPQQKVILEPLQPAPGRLSLRFAVLEMDGAVVRRFTGTAFLDVWLTVPCAAQPLNRGDRLEVEKVTWMRKNIAHLRAAPWDGRGGPWQLQRPVGAGQVVYQDDVAPNPAVTRGGIVTLVYESPALRLAVQGEALADGMPGETIQVRNLQSRKQVYATVRDGSTVVVREGHHHHHH
